Patent publication US20150344570A1 (published 2015)

T1: FcγRIIb extracellular domain with C-terminal His tag (human, UniProt P31994 43-217)
T1 construct: extracellular domain; also called FcgRIIb; 2b; not shown: His tag at the C terminus
T1 sequence (looked up): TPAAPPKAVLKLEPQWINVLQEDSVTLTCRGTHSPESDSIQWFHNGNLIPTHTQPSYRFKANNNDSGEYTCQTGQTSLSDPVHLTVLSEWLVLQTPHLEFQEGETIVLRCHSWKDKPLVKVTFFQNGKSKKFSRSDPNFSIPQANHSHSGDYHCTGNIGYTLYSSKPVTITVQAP

B1: GpH7-B3 variant K326_07I/GpL16-k0 (antibody, human IgG1, kappa)
heavy: not shown
light: DIVMTQSPLSLPVTPGEPASISCQASESLVHSNRNTYLHWYLQKPGQSPQLLIYKVSNRFSGVPDRFSGSGSGTDFTLKISRVEAEDVGVYYCSQNTHVPPTFGQGTKVEIERTVAAPSVFIFPPSDEQLKSGTASVVCLLNNFYPREAKVQWKVDNALQSGNSQESVTEQDSKDSTYSLSSTLTLSKADYEKHKVYACEVTHQGLSSPVTKSFNRGEC
notes: also called Ho Ab K326_07I
B2: GpH7-B3 variant K326_04F/GpL16-k0 (antibody, human IgG1, kappa)
heavy: not shown
light: B1 light
notes: also called Ho Ab K326_04F
B3: GpH7-B3 variant H268_13S/GpL16-k0 (antibody, human IgG1, kappa)
heavy: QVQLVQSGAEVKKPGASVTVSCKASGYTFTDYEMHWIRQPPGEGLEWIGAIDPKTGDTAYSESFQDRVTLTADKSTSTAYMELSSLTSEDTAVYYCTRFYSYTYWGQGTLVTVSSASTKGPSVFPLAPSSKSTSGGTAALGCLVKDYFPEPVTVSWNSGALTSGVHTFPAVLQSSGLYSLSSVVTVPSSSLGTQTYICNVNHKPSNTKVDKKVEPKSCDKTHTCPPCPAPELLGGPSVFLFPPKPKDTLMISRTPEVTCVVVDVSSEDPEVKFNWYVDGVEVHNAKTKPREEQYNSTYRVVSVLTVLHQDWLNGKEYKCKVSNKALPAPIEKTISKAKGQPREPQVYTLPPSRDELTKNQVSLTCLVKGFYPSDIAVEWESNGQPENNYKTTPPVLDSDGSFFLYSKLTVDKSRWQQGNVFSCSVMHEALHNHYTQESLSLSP
light: B1 light
notes: also called Ho Ab H268_13S
B4: GpH7-B3 variant I336_08L/GpL16-k0 (antibody, human IgG1, kappa)
heavy: not shown
light: B1 light
notes: also called Ho Ab I336_08L
B5: GpH7-B3 variant A327_10E/GpL16-k0 (antibody, human IgG1, kappa)
heavy: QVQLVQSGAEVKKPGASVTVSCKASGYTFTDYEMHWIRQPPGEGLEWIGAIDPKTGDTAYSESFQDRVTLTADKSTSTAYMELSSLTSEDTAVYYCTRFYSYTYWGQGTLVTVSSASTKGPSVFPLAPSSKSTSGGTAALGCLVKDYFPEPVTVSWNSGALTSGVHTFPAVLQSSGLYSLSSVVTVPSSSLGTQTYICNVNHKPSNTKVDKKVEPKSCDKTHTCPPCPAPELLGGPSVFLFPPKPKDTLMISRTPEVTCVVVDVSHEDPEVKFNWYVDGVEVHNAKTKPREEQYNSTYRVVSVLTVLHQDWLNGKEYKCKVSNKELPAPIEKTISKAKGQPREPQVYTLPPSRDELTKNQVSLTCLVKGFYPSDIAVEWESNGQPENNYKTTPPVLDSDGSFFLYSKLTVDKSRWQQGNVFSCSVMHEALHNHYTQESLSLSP
light: B1 light
notes: also called Ho Ab A327_10E
B6: GpH7-B3 variant H268_09D/GpL16-k0 (antibody, human IgG1, kappa)
heavy: not shown
light: B1 light
notes: also called Ho Ab H268_09D
B7: GpH7-B3 variant I332_09D/GpL16-k0 (antibody, human IgG1, kappa)
heavy: not shown
light: B1 light
notes: also called Ho Ab I332_09D
B8: GpH7-B3 variant G236_10E/GpL16-k0 (antibody, human IgG1, kappa)
heavy: not shown
light: B1 light
notes: also called Ho Ab G236_10E
B9: GpH7-B3 variant I332_14T/GpL16-k0 (antibody, human IgG1, kappa)
heavy: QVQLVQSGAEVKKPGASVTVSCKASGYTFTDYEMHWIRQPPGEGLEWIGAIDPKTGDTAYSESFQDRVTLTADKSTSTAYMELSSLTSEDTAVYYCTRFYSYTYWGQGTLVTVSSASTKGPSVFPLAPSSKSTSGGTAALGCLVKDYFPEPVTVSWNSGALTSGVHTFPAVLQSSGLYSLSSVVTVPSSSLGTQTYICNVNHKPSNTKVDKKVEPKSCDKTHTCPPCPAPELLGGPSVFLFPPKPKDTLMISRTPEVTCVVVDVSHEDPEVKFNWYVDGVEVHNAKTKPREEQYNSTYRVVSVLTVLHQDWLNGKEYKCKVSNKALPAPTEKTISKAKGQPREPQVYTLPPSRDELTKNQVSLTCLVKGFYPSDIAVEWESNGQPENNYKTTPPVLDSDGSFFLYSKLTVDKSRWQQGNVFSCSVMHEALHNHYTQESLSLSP
light: B1 light
notes: also called Ho Ab I332_14T
B10: GpH7-B3 variant I332_04F/GpL16-k0 (antibody, human IgG1, kappa)
heavy: not shown
light: B1 light
notes: also called Ho Ab I332_04F
B11: GpH7-B3 variant A330_01G/GpL16-k0 (antibody, human IgG1, kappa)
heavy: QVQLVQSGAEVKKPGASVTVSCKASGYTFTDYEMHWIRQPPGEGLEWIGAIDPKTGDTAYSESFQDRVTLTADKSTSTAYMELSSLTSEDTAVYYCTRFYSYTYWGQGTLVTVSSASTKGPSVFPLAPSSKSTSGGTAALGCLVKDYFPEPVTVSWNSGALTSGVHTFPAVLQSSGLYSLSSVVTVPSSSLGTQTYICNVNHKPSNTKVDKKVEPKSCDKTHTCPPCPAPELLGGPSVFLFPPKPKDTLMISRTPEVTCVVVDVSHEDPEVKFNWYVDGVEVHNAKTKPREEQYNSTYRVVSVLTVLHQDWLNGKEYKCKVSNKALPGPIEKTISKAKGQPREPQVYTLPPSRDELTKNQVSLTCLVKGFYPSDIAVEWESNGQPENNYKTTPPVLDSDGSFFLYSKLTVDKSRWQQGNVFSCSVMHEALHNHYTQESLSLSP
light: B1 light
notes: also called Ho Ab A330_01G
B12: GpH7-B3 variant G237_04F/GpL16-k0 (antibody, human IgG1, kappa)
heavy: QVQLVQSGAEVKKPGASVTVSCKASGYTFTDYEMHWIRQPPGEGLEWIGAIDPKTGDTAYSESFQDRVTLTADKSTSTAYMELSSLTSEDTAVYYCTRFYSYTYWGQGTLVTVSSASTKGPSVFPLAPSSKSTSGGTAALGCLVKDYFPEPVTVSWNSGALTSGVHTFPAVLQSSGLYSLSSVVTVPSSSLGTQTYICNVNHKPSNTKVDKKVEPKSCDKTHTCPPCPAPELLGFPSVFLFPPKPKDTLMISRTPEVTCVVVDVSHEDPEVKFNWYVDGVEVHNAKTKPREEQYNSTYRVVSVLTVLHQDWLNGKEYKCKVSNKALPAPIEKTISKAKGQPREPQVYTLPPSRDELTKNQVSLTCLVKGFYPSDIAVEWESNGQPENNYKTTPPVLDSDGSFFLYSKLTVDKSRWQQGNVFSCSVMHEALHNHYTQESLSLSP
light: B1 light
notes: also called Ho Ab G237_04F
B13: GpH7-B3 variant H268_01G/GpL16-k0 (antibody, human IgG1, kappa)
heavy: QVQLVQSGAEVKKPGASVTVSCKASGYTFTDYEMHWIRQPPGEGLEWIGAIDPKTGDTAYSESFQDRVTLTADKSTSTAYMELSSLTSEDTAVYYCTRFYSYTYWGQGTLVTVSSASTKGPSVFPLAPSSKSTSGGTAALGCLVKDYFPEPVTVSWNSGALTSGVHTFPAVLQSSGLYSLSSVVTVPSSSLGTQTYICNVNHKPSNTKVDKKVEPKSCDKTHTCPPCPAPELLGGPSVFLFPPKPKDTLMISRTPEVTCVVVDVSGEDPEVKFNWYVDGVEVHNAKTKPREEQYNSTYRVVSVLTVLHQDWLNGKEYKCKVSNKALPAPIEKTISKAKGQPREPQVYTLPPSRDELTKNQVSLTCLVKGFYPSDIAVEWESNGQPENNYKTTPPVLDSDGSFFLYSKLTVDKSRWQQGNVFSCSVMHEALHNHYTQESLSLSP
light: B1 light
notes: also called Ho Ab H268_01G
B14: GpH7-B3 variant A327_09D/GpL16-k0 (antibody, human IgG1, kappa)
heavy: not shown
light: B1 light
notes: also called Ho Ab A327_09D
B15: GpH7-B3 variant H268_10E/GpL16-k0 (antibody, human IgG1, kappa)
heavy: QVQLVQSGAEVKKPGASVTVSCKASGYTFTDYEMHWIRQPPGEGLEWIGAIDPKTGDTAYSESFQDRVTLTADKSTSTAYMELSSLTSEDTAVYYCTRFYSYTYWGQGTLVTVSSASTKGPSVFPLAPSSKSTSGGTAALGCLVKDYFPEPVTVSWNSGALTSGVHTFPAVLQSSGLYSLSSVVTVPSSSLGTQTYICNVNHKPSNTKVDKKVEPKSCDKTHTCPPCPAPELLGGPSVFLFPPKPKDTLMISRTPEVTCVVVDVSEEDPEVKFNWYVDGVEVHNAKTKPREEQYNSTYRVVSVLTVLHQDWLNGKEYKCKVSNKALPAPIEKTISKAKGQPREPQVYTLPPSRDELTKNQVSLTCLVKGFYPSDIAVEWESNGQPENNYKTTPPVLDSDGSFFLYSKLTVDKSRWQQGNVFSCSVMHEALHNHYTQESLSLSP
light: B1 light
notes: also called Ho Ab H268_10E
B16: GpH7-B3 variant I332_15Y/GpL16-k0 (antibody, human IgG1, kappa)
heavy: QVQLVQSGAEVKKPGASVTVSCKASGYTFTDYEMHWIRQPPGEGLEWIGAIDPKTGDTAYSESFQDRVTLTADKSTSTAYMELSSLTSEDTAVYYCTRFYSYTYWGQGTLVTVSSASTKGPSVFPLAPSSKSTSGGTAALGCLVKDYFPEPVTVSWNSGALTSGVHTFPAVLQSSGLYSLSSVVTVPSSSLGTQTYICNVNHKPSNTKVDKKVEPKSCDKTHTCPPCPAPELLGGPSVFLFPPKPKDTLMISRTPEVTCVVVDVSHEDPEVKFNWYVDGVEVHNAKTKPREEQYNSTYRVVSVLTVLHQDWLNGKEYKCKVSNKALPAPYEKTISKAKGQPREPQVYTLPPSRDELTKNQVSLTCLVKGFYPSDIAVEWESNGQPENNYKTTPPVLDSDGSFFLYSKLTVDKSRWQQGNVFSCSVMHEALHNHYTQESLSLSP
light: B1 light
notes: also called Ho Ab I332_15Y
B17: GpH7-B3 variant K326_06M/GpL16-k0 (antibody, human IgG1, kappa)
heavy: not shown
light: B1 light
notes: also called Ho Ab K326_06M
B18: GpH7-B3 variant H268_18N/GpL16-k0 (antibody, human IgG1, kappa)
heavy: not shown
light: B1 light
notes: also called Ho Ab H268_18N
B19: GpH7-B3 variant I332_10E/GpL16-k0 (antibody, human IgG1, kappa)
heavy: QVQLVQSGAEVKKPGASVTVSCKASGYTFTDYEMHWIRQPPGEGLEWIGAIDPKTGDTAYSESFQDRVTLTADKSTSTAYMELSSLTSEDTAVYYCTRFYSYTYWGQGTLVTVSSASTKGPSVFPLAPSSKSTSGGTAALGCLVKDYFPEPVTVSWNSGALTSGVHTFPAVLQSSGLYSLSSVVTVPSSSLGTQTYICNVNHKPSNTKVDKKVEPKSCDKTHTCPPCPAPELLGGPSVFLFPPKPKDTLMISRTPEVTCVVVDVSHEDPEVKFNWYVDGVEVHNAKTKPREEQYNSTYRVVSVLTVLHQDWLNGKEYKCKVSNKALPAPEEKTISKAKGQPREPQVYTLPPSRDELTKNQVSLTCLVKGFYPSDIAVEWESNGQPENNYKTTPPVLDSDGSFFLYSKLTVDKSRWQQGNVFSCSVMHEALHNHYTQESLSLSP
light: B1 light
notes: also called Ho Ab I332_10E
B20: GpH7-B3 variant I332_06M/GpL16-k0 (antibody, human IgG1, kappa)
heavy: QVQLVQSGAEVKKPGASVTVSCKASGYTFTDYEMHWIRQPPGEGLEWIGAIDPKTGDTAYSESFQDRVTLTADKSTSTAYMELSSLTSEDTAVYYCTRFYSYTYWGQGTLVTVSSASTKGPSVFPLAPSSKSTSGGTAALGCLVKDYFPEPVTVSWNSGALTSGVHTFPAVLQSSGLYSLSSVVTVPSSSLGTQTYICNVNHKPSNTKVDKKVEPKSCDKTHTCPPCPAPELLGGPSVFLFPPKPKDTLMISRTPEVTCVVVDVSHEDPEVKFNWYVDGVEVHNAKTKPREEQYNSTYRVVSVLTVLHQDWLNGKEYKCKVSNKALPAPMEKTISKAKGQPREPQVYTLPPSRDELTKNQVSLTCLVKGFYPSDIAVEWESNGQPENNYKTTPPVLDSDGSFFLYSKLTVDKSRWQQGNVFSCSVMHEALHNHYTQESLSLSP
light: B1 light
notes: also called Ho Ab I332_06M
B21: GpH7-B3 variant G236_09D/GpL16-k0 (antibody, human IgG1, kappa)
heavy: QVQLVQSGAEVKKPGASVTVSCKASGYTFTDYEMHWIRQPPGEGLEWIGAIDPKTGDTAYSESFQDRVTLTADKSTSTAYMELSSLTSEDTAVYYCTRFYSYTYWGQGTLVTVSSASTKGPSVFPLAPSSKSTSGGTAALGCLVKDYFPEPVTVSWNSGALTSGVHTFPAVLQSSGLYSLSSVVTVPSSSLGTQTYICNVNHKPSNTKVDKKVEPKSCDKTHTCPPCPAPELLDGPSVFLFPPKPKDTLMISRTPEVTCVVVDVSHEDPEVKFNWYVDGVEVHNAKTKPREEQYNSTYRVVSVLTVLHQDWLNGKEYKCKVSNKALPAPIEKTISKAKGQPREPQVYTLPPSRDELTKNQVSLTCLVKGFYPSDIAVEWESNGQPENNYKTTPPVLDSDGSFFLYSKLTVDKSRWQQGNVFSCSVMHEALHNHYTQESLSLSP
light: B1 light
notes: also called Ho Ab G236_09D
B22: GpH7-B3 variant G237_20W/GpL16-k0 (antibody, human IgG1, kappa)
heavy: not shown
light: B1 light
notes: also called Ho Ab G237_20W
B23: GpH7-B3 variant K326_03V/GpL16-k0 (antibody, human IgG1, kappa)
heavy: not shown
light: B1 light
notes: also called Ho Ab K326_03V

Biological target: T1, FcγRIIb extracellular domain with …
Experiment: SPR, relative binding, HoCon Ab = 100
Description: Analysis of interaction between objective antibody and the FcγR was carried out using Biacore T100 (GE Healthcare). HBS-EP+ (GE Healthcare) was used as the running buffer, and the measurement temperature was set to 25° C. Chips produced by immobilizing the antigen peptide by the amine coupling method to a Series S Sencor Chip CM5 (GE Healthcare), or alternatively, chips produced by allowing preliminarily biotinylated antigen peptides to interact with and immobilize onto a Series S Sensor Chip SA (certified) (GE Healthcare) were used. Antibodies of interest were captured onto an antigen peptide-immobilized chip, and allowed to interact to each FcγR diluted with running buffer. To regenerate and repeatedly use the chip, the antibodies captured on the chip were washed off by reacting 10 mM glycine-HCl, pH 1.5.

| Ho/Con_2b | Binder |
| --- | --- |
| 170 % of control | B1 |
| 160 % of control | B2 |
| 186 % of control | B3 |
| 103 % of control | B4 |
| 148 % of control | B5 |
| 298 % of control | B6 |
| 182 % of control | B7 |
| 114 % of control | B8 |
| 106 % of control | B9 |
| 117 % of control | B10 |
| 102 % of control | B11 |
| 140 % of control | B12 |
| 158 % of control | B13 |
| 175 % of control | B14 |
| 275 % of control | B15 |
| 109 % of control | B16 |
| 193 % of control | B17 |
| 179 % of control | B18 |
| 181 % of control | B19 |
| 106 % of control | B20 |
| 207 % of control | B21 |
| 166 % of control | B22 |
| 184 % of control | B23 |
